Read-outs that look alike come from different tables or passages of the source.
Legend:
Experiment in all cases: BLI
[1] = biological target: T1, SARS-CoV-2 spike ectodomain (UniProt P0DTC2 14-1213)
[2] = biological target: T1, SARS-CoV-2 spike ectodomain; remark: listed apart in the source
[3] = biological target: T1, SARS-CoV-2 spike ectodomain; remark: listed apart in the source

B1: Fab 494 (Fab, V domains shown)
VH: EVQLVESGGGLVQPGGSLRLSCAASGFTVSSNYMSWVRQAPGKGLEWVSVIYSGGSTFYADSVKGRFTISRDNSKNTLYLQMNSLRAEDTAVYYCARDSGDQLLDYWGQGTLVTVSS
VL: DIQLTQSPSFLSASVGDRVTITCRASQGISSYLAWYQQKPGKAPKLLIYAASTLQSGVPSRFSGSGSGTEFTLTISSLQPEDFATYYCQQLNSYPPFTFGPGTKVDIKR
Kd [1]: 5.9 nM

B2: Fab 483 (Fab, V domains shown)
VH: QVQLQESGPGLVKPSETLSLTCTVSGGSISSYYWSWIRQPPGKGLEWIGYIYYSGSTNYNPSLKSRVTISVDTSKNQFSLKLSSVTAADTAVYYCARAPEEKSSEIGELVGWGWFDPWGQGTLVTVSS
VL: not shown
Kd [2]: 23.1 nM

B3: Fab 419 (Fab, V domains shown)
VH: QVQLVQSGAEVKKPGASVKVSCKASGYTFTSYYMHWVRQAPGQGLEWMGIINPSGGSTSYAQKFQGRVTMTRDTSTSTVYMELSSLRSEDTAVYYCARDWTQSSGYDYYYGLDVWGQGTTVTVSS
VL: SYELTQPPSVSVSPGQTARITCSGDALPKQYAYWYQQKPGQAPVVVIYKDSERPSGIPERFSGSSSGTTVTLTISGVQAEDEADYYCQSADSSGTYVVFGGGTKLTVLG
Kd [3]: 365 nM

Reference: US20210292393A1 (published 2021)
